According to US10456465B2, “Compositions, kits, and methods for the diagnosis prognosis, monitoring, treatment and modulation of post-transplant lymphoproliferative disorders and hypoxia associated angiogenesis disorders using galectin-1” (Dana-Farber Cancer Institute, Inc., priority 2009, dated 2019):

Tests used:
[1] = target: T1, VEGFR2 (Homo sapiens, UniProt P35968); assay: Co-immunoprecipitation of Gal1 with VEGFR2 in HUVEC lysates; assay type: binding; conditions: lysates of human ECs treated with Gal1
T1 construct: co-immunoprecipitation results followed by immunoblot analysis of HUVEC lysates; endogenous in cells; host or cells: primary HUVEC
T1 sequence (P35968 20-1356): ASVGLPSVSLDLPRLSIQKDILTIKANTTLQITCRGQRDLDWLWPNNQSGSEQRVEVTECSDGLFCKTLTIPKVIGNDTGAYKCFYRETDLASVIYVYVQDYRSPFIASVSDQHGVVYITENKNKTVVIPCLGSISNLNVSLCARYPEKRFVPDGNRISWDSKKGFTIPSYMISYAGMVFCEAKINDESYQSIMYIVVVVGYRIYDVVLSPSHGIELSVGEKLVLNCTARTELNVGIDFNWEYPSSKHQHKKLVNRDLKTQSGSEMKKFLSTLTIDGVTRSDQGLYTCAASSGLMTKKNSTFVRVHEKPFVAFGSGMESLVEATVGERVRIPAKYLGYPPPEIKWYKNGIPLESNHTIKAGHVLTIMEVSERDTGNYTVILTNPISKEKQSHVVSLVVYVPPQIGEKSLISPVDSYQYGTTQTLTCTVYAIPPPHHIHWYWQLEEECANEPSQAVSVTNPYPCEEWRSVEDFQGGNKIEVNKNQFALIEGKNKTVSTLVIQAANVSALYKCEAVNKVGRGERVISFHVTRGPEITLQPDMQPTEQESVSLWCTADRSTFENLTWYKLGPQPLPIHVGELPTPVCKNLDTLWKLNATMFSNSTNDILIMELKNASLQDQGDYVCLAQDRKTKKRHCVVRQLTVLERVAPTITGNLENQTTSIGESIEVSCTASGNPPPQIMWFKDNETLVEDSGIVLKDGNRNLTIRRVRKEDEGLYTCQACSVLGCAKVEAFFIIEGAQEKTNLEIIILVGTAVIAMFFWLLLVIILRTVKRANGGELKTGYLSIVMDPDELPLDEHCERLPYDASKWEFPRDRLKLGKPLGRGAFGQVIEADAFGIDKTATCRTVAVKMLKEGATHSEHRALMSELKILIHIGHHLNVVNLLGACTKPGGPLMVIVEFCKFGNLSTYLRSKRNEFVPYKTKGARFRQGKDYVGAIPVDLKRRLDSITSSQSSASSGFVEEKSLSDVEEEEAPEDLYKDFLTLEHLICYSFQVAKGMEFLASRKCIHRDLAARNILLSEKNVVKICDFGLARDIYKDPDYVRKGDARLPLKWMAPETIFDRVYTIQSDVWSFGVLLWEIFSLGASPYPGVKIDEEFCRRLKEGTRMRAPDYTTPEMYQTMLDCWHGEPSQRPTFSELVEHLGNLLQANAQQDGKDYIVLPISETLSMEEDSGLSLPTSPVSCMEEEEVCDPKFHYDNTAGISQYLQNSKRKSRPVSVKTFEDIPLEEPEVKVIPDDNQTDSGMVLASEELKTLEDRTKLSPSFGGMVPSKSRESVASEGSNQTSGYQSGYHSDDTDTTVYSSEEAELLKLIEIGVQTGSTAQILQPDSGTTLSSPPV
T1 sequence (P09382 2-135 partner limits assumed): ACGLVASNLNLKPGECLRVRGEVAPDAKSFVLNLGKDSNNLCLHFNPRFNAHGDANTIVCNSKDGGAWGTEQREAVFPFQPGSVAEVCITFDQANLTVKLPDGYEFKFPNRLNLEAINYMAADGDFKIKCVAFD
Experimental: (§1) Array (Cell Signaling) following manufacturer's directions. For co-immunoprecipitation, 500 μg cell lysates were incubated with 2 μg of anti-VEGFR2 (55B11; Cell Signaling) or anti-NRP-1 (C-19; Santa Cruz Biotechnol) antibodies. The immunocomplexes were captured with protein G PLUS-Agarose (Santa Cruz Biotechnol) and processed for immunoblot analysis as described in Ilarregui et al. (2009) Nat Immunol 10, 981-991. Equal amounts of protein were resolved by SDS-PAGE, blotted onto nitrocellulose membranes (GE Healthcare) and probed with anti-IκB-α (C21), anti-Erk1/2 (C14), anti-phospho-Erk1/2 (E4) or anti-actin (I-19) (all from Santa Cruz Biotechnol) or anti-Akt (9272), anti-phospho-Akt (9271S), anti-VEGFR2 (55B11), anti-phospho-VEGFR2 (19A10) (all from Cell Signaling) or anti-HIF-1α (mgc3; ABR BioReagent) antibodies or a rabbit anti-Gal1 IgG (1.5 μg/ml) obtained as described in Ilarregui et al. (2009) Nat Immunol 10, 981-991.

[2] = tested on: growth factor receptor tyrosine kinases (RTKs) and signaling nodes; assay: Phospho-RTK signaling array of HUVEC; assay type: cell-based, human; conditions: HUVEC exposed to Gal1
Experimental: Cells were lysed and analyzed by the human PathScan® RTK Signaling Antibody
as §1

[3] = tested on: mice (Matrigel plugs); assay: In vivo vascularization of Matrigel sponges; design: species or system mouse; conditions: Gal1 0.1 or 3 μM; 6 days; hemoglobin content
Experimental: Invasion assays were performed using the BioCoat Angiogenesis system (BD Biosciences) following manufacturer's recommendations. For assessment of in vivo angiogenesis, growth factor-reduced Matrigel (BD Biosciences) was mixed with Gal1 (0.1 or 3 μM) with or without lactose (30 mM). In another set of experiments, serum-free CM from KS cells infected or not with a retroviral vector expressing Gal1 shRNA and cultured under hypoxic or normoxic conditions, were added to unpolymerized Matrigel and injected subcutaneously into the flanks of either wild-type or Lgals1^−/− (B6) mice or nude mice using a cold syringe. Matrigel embedded with buffer alone was used as negative control and a cocktail containing VEGF (50 ng/ml), heparin (50 U/ml) and TNF (2 ng/ml) was used as positive control. After 6 days, Matrigel plugs were collected by surgery, photographed and weighed. Samples were minced and diluted in water to measure hemoglobin content using the Drabkin reagent kit (Sigma). Each sample was normalized to 100 mg of recovered gel and confronted with a standard curve of mouse blood hemoglobin.

[4] = tested on: B16 tumors; assay: Anti-tumor immune response in B16 tumor-bearing mice (TDLN restimulation, FACS); assay type: in vivo, mouse
Experimental: Wild-type KS cells or shRNA clones (5×10^6 cells) were injected subcutaneously into 6- to 8-week old nude mice. Wild-type B16 cells or shRNA clones (2×10^5 cells) were injected into 6- to 8-week old B6 or B6/Rag^−/− mice and tumor development was monitored as described in Rubinstein et al. (2004) Cancer Cell 5, 241-251. Treatments with 8F4F8G7 mAb or control isotype (2.5, 7.5 or 15 mg/kg; i.p. injections every three days) were initiated when tumors reached 100 mm^3. Mice were sacrificed when tumors reached a volume greater than 2 cm^3. At 2 weeks after tumor challenge, lymph node cells (5×10^5 cells/well) were restimulated for 72 h with 1×10^4 irradiated (4,000 rads) B16 cells and were analyzed for proliferation and cytokine production. For adoptive transfer, splenic T cells (5×10^6) from tumor-bearing mice were labeled with CFSE (Molecular Probes) and injected through the tail vein into tumor-bearing recipient mice treated with 8F4F8G7 or control mAb. In related studies, fluorescent beads (3 μm; BD Biosciences), rather than splenic T cells, were injected into tumor-bearing animals treated with 8F4F8G7 or control antibody. CFSE^+ cells or PerCP-labeled beads were analyzed after 24 h or 15 min respectively by flow cytometry in tumor parenchyma and spleen.
For intracellular cytokine staining, TLDN or tumor-infiltrating lymphocytes were made permeable with Perm2 solution (BD Biosciences) and were labeled with fluorescent-labeled monoclonal anti-IFN-γ (XMG1.2; BD Biosciences), anti-IL-17 (TC11-18H10; BD Biosciences), anti-IL-10 (JESS-16E3; eBioscience), anti-CD4 (GK1.5; BD Biosciences), anti-CD8 (H35-17.2; eBioscience) antibodies. Treg cells were determined by using the mouse Treg staining kit (FJK-16s, eBioscience). Cells were analyzed on a FACSAria (BD Biosciences) using a FlowJO software.
Mouse IFN-γ and IL-10 ELISA sets were from BD Biosciences and mouse IL-17 kit was from R&D. Human soluble VEGF was assessed by ELISA (DY293B; R&D). Soluble Gal1 was determined using an in-house ELISA. Briefly, high binding 96-well microplates (Corning Costar) were coated with capture antibody (2 μg/ml purified rabbit anti-Gal1 polyclonal IgG) in 0.1 M sodium carbonate pH 9.5. After incubation for 18 hours at 4° C., wells were rinsed three times with wash buffer (0.05% Tween-20 in PBS) and incubated for 1 h at RT with blocking solution (2% BSA in PBS). Samples and standards (100 μl) were diluted in 1% BSA and incubated for 18 hours at 4° C. Plates were then washed and incubated with 100 ng/ml biotinylated detection antibody (purified rabbit anti-Gal1 polyclonal IgG) for 1 hour at RT. Plates were rinsed three times before adding horseradish peroxidase-labeled streptavidin (0.33 μg/ml; Sigma) for 30 min at RT. After washing, 100 μl of TMB solution (0.1 mg/ml tetramethylbenzidine and 0.06% H2O2 in citrate-phosphate buffer pH 5) was added to the plates. The reaction was stopped by adding 4N H2SO4. Optical densities were determined at 450 nm in a Multiskan MS microplate reader (Thermo Electron Corporation). A standard curve ranging from 2.5 to 160 ng/ml recombinant Gal1 was run in parallel.

[5] = tested on: VEGFR2; assay: Immunoblot of VEGFR2 phosphorylation in HUVEC; assay type: cell-based, human
Experimental: as §1

[6] = restimulated ex vivo with B16 cells

Row | Molecule | association with VEGFR2 [1] | phosphorylation of Akt (Thr308), Akt (Ser473) and Erk1/2 [2] | phosphorylation of VEGFR2 ([2]; as early as 15 min) | vascularization of Matrigel sponges containing recombinant Gal1 [3] | B16-specific IL-10 production ([4]; mouse, in vivo) | proliferation of tumor-draining lymph node cells [4, 6] | synthesis and secretion of IFN-γ by tumor-draining lymph node cells [4, 6] | synthesis and secretion of IL-17 by tumor-draining lymph node cells [4, 6] | frequency of CD4+CD25+FoxP3+ Treg cells in TDLN ([4]; vs isotype control) | number of tumor-infiltrating IFN-γ-producing CD8+ T cells ([4]; vs isotype-treated mice) | VEGFR2 phosphorylation in response to Gal1 [5]
1 | rGal1: recombinant human galectin-1 | associated specifically | increased | became phosphorylated | rapidly became vascularized | – | – | – | – | – | – | –
2 | anti-Gal1 monoclonal antibody 8F4F8G7 (antibody, V domains shown, Murine hybridoma mAb (deposit PTA-10535), lambda light chain; also called 14-19 8F4-F8-G7; clone 8F4.8F.67) VH: EVQLQQSVAEFVRPGASVRLSCTASGFNIKNTYIHWVRQRPEQGLEWIGKIDPANGNTKYVPEFQGKATMTADTSSNTVYLHLSSLTSEDTAIYYCVDGYYGWYFAVWGTGTTVTVSS VL: QAVVTQESALTTSPGETVTLTCRSSTGAVTTSNYANWVQEKPDHLFTGLIGATNNRAPGVPARFSGSLIGDKAVLTITGAQTEDEAIYFCALWYRNHFIFGSGTKVTVL | – | – | – | – | blunted | stimulated | stimulated | stimulated | decline | dramatic increase | specifically inhibited
